In patent publication US5106621A, “Cysteine proteinases, production and use” (priority 1987, dated 1992):

Tests used:
Format in all cases: biochemical, Ananas comosus
[1] = substrate: Cc1cc(=O)oc2cc(NC(=O)[C@H](CCCNC(=N)N)NC(=O)[C@H](CCCNC(=N)N)NC(=O)OCc3ccccc3)ccc12; assay: Kinetics of hydrolysis of fluorimetric substrates by ananain; conditions: other: ananain, 40° C., pH 6.8 buffer, 0.007% Brij 35, substrate 2 to 100 μM, spread = standard deviation
Experimental: (§1) used for this example was obtained by the method described in Example 1: the bromelain used was as in Example 4. For the determination of kinetic parameters Km (the Michaelis Constant) and kcat (the turnover number) of hydrolysis of Z-Phe-Arg-NHMec and Z-Arg-Arg-NHMec, measurements of the initial rates of reaction were made in 0.007% Brij 35 at 40° C. The enzymes (1×10^-11 M to 1×10^-9 M final concentration of activatable enzyme as determined by active-site titration) were activated in 0.75 ml of 4-fold concentrated buffer in a fluorimetric cuvette at 40° C. for 2 min, to which pre-warmed 0.01% Brij was added, followed by substrate to a final volume of 3.0 ml. Continuous rate assays were carried out using a temperature-controlled cell, with stirring, in the fluorimeter ([…]), standardized so that 1000 arbitrary units corresponded to 0.2 μM coumarin (i.e. at most, 10% substrate hydrolysis). Substrate concentration(s) used were in the range 2 to 100 μM. Visual inspection of the data was performed using the direct linear plot and plots of s/v against s (v being the rate of product formation). (Henderson, P. J. F., Techniques in Protein and Enzyme Biochemistry, B113, 1-43, 1978). Values of Km and Vmax (the maximum rate of product formation at a given enzyme concentration) were calculated by the method of Wilkinson, G. N., Biochem. J., 80, 324-332, 1961.

[2] = substrate: Cc1cc(=O)oc2cc(NC(=O)[C@H](CCCNC(=N)N)NC(=O)[C@H](Cc3ccccc3)NC(=O)OCc3ccccc3)ccc12; assay: as above; conditions: other: ananain, 40° C., pH 6.8 buffer, 0.007% Brij 35, substrate 2 to 100 μM, spread = standard deviation
Experimental: as §1

[3] = substrate: Cc1cc(=O)oc2cc(NC(=O)[C@H](CCCNC(=N)N)NC(=O)[C@H](CCCNC(=N)N)NC(=O)OCc3ccccc3)ccc12; assay: Kinetics of hydrolysis of fluorimetric substrates by bromelain; conditions: other: bromelain, 40° C., pH 6.8 buffer, 0.007% Brij 35, substrate 2 to 100 μM, spread = standard deviation
Experimental: (§2) The enzymes used were affinity purified ananain and comosain (Examples 1 and 2) and bromelain, which was obtained from chromatography-purified Sigma bromelain (catalogue number B 5144) by affinity chromatography on a column of Sepharose-aminohexanoyl-Gly-Phe-Gly-semicarbazide, followed by dialysis into 1 mM EDTA and lyophilisation. The proteinases were standardised by E-64 titration as described in Example 8.
(§3) Ananain used for this example was obtained by the method described in Example 1: the bromelain used was as in Example 4.
as §1, with “For” for “used for this example was obtained by the method described in Example 1: the bromelain used was as in Example 4. For”

[4] = substrate: Cc1cc(=O)oc2cc(NC(=O)[C@H](CCCNC(=N)N)NC(=O)[C@H](Cc3ccccc3)NC(=O)OCc3ccccc3)ccc12; assay: as above; conditions: other: bromelain, 40° C., pH 6.8 buffer, 0.007% Brij 35, substrate 2 to 100 μM, spread = standard deviation
Experimental: as §2, §3
as §1, with “For” for “used for this example was obtained by the method described in Example 1: the bromelain used was as in Example 4. For”

Protein | Km [1] | kcat [1] | kcat/Km [1] | Km [2] | kcat [2] | kcat/Km [2] | Km [3] | kcat [3] | kcat/Km [3] | Km [4] | kcat [4] | kcat/Km [4]
ananain, cysteine proteinase purified from pineapple (Ananas comosus) stem extract (Ananas comosus) (protein, from tissue; host or cells: pineapple stem extract (from the earlier reading)) VPQSIDWRDSGAVTSVKNQGRCGSCWAFASIATVESIYKIKRGNLVSLSEQQVLDCAVSYGCKGGWINKAYSFIISNKGVASAAIYPYKAAKGTCKTNGVPNSAYITRYTYVQRNNERNMMYAVSNQPIAAALDASGNFQHYKRGVFTGPCGTRLNHAIVIIGYGQDSSGKKFWIVRNSWGAGWGEGGYIRLARDVSSSFGLCGIAMDPLYPTLQS | 44.5 (±9.0) μM | 0.323 (±0.03) s^-1 | 0.007 (±0.002) s^-1 · μM^-1 | 48.3 (±4.8) μM | 7.07 (±0.3) s^-1 | 0.146 (±0.02) s^-1 · μM^-1 | – | – | – | – | – | –
bromelain (stem bromelain, EC 3.4.22.4), affinity purified from Sigma bromelain, pineapple (Ananas comosus) stem (Ananas comosus) (protein, purchased Sigma B 5144) AVPQSIDWRDYGAVTSVKNQNPCGACWAFAAIATVESIYKIKKGILEPLSEQQVLDCAKGYGCKGGWEFRAFEFIISNKGVASGAIYPYKAAKGTCKTDGVPNSAYITGYARVPRNNESSMMYAVSKQPITVAVDANANFQYYKSGVFNGPCGTSLNHAVTAIGYGQDSIIYPKKWGAKWGEAGYIRMARDVSSSSGICGIAIDPLYPTLEE | – | – | – | – | – | – | 15.4 (±2.8) μM | 27.3 (±1.9) s^-1 | 1.77 (±0.37) s^-1 · μM^-1 | 83.1 (±14.1) μM | 0.14 (±0.01) s^-1 | 0.0016 (±0.0003) s^-1 · μM^-1
